Source: publication PMC3753655

Molecular target: His6-MS2 coat protein (bacteriophage MS2) (UniProt P03612)
Test: SEC; Superose 6 (10/300 GL); supernatants of crude cell extracts of E. coli JM101 expression cultures; 50 mM Tris-HCl pH 7.5, 300 mM NaCl; with or without benzonase treatment; reference proteins 669, 400 and 29 kDa

stoichiometry N: 2
Substance: His6-MS2 coat protein (from UniProt P03612 1-130) (natural protein)
